# From patent US20150376275A1
# What was measured:
# [1] = molecular target: KIR (KIR2D receptors; KIR2DL1 and 2/3) on the patients' NK cells; assay: receptor occupancy on patients' NK cells by flow cytometry after a single i.v. dose of 0.0003 mg/kg (AML dose-escalation trial)
# [2] = molecular target: KIR (KIR2D receptors; KIR2DL1 and 2/3) on the patients' NK cells; assay: receptor occupancy on patients' NK cells by flow cytometry after a single i.v. dose of 0.003 mg/kg (AML dose-escalation trial)
substance,measurement,setting,value
"fully human anti-KIR2DL1, 2 and 3 monoclonal antibody 1-7F9",KIR occupancy,[1],50%
same,KIR occupancy,[2],90%
